Results as given in patent US12679878B2, “CRF2 receptor agonists and their use in therapy” (SANOFI, priority 2020, dated 2026).
Starred links: 1 amine or outer side, 2 acyl side, 3 side chain; linkers in the order of their positions; H or OH if unused. Non-standard residues stand in square brackets, D forms with d. Groups on a side chain read outwards from the residue. No end group written: not given here. *: point of attachment. C16 diacid = O=C(O)CCCCCCCCCCCCCCC(=O)*; γGlu = O=C(O)[C@H](CCC(=O)[*:2])N[*:1]; AEEA = NCCOCCOCC(=O)O; Aib = CC(C)(N)C(=O)O

T1: CRF1R receptor (anti-target) (UniProt P34998 24-415, limits assumed)
T1 sequence (looked up): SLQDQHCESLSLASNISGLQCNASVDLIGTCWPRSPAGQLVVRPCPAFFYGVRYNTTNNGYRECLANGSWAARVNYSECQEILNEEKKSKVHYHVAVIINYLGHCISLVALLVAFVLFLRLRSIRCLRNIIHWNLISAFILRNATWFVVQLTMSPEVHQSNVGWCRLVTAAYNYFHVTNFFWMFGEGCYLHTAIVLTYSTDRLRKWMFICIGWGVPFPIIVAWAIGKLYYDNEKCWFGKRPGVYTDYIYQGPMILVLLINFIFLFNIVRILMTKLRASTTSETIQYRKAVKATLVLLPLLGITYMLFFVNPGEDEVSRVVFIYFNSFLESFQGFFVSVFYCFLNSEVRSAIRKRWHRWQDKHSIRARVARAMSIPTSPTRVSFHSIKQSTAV


Experiments:
[1] = target: T1, CRF1R receptor (anti-target); experiment: cell-based or functional assay
[2] = target: human corticotropin-releasing factor 2α (CRF2α receptor) (human), Q13324; experiment: cell-based or functional assay
Chain of human corticotropin-releasing factor 2α (CRF2α receptor) (human), Q13324 (Q13324 20-411): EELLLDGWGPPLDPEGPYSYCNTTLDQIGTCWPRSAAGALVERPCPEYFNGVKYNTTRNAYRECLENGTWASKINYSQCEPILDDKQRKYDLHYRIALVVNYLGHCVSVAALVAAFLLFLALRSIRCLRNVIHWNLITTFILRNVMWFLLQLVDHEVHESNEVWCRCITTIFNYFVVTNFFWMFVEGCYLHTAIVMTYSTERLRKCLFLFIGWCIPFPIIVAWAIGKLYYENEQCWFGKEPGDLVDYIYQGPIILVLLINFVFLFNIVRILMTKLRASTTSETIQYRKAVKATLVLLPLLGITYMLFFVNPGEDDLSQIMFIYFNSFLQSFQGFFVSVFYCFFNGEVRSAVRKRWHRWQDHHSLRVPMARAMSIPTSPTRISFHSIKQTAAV

| EC50 [nM] 0% HSA (cAMP, HTRF) [1] [nM] | Emax (%) (100% = Sauvagine at 100 nM) [1] | EC50 [nM], 0% HSA (cAMP, HTRF) [2] [nM] | Binder |
| --- | --- | --- | --- |
| > 100 | -2.8 | 4.66 | IVLSLD[dV]PIKLK([AEEA-AEEA-γGlu-γGlu-C16 diacid])QILLKQERQKK[Aib]RQKAEKNKQILAQV-NH2 (N-terminus assumed; SMILES CC[C@H](C)[C@H](N)C(=O)N[C@H](C(=O)N[C@@H](CC(C)C)C(=O)N[C@@H](CO)C(=O)N[C@@H](CC(C)C)C(=O)N[C@@H](CC(=O)O)C(=O)N[C@@H](C(=O)N1CCC[C@H]1C(=O)N[C@H](C(=O)N[C@@H](CCCCN)C(=O)N[C@@H](CC(C)C)C(=O)N[C@@H](CCCCNC(=O)COCCOCCNC(=O)COCCOCCNC(=O)CC[C@H](NC(=O)CC[C@H](NC(=O)CCCCCCCCCCCCCCC(=O)O)C(=O)O)C(=O)O)C(=O)N[C@@H](CCC(N)=O)C(=O)N[C@H](C(=O)N[C@@H](CC(C)C)C(=O)N[C@@H](CC(C)C)C(=O)N[C@@H](CCCCN)C(=O)N[C@@H](CCC(N)=O)C(=O)N[C@@H](CCC(=O)O)C(=O)N[C@@H](CCCNC(=N)N)C(=O)N[C@@H](CCC(N)=O)C(=O)N[C@@H](CCCCN)C(=O)N[C@@H](CCCCN)C(=O)NC(C)(C)C(=O)N[C@@H](CCCNC(=N)N)C(=O)N[C@@H](CCC(N)=O)C(=O)N[C@@H](CCCCN)C(=O)N[C@@H](C)C(=O)N[C@@H](CCC(=O)O)C(=O)N[C@@H](CCCCN)C(=O)N[C@@H](CC(N)=O)C(=O)N[C@@H](CCCCN)C(=O)N[C@@H](CCC(N)=O)C(=O)N[C@H](C(=O)N[C@@H](CC(C)C)C(=O)N[C@@H](C)C(=O)N[C@@H](CCC(N)=O)C(=O)N[C@H](C(N)=O)C(C)C)[C@@H](C)CC)[C@@H](C)CC)[C@@H](C)CC)C(C)C)C(C)C) [peptide of SEQ ID NO: 201] |
| > 100 | -2.9 | 1.39 | IVLSLD[dV]PIKLK([AEEA-AEEA-γGlu-γGlu-C16 diacid])QILLKQERQK[Aib]QREQAEKNKQILAQV-NH2 (N-terminus assumed; SMILES CC[C@H](C)[C@H](N)C(=O)N[C@H](C(=O)N[C@@H](CC(C)C)C(=O)N[C@@H](CO)C(=O)N[C@@H](CC(C)C)C(=O)N[C@@H](CC(=O)O)C(=O)N[C@@H](C(=O)N1CCC[C@H]1C(=O)N[C@H](C(=O)N[C@@H](CCCCN)C(=O)N[C@@H](CC(C)C)C(=O)N[C@@H](CCCCNC(=O)COCCOCCNC(=O)COCCOCCNC(=O)CC[C@H](NC(=O)CC[C@H](NC(=O)CCCCCCCCCCCCCCC(=O)O)C(=O)O)C(=O)O)C(=O)N[C@@H](CCC(N)=O)C(=O)N[C@H](C(=O)N[C@@H](CC(C)C)C(=O)N[C@@H](CC(C)C)C(=O)N[C@@H](CCCCN)C(=O)N[C@@H](CCC(N)=O)C(=O)N[C@@H](CCC(=O)O)C(=O)N[C@@H](CCCNC(=N)N)C(=O)N[C@@H](CCC(N)=O)C(=O)N[C@@H](CCCCN)C(=O)NC(C)(C)C(=O)N[C@@H](CCC(N)=O)C(=O)N[C@@H](CCCNC(=N)N)C(=O)N[C@@H](CCC(=O)O)C(=O)N[C@@H](CCC(N)=O)C(=O)N[C@@H](C)C(=O)N[C@@H](CCC(=O)O)C(=O)N[C@@H](CCCCN)C(=O)N[C@@H](CC(N)=O)C(=O)N[C@@H](CCCCN)C(=O)N[C@@H](CCC(N)=O)C(=O)N[C@H](C(=O)N[C@@H](CC(C)C)C(=O)N[C@@H](C)C(=O)N[C@@H](CCC(N)=O)C(=O)N[C@H](C(N)=O)C(C)C)[C@@H](C)CC)[C@@H](C)CC)[C@@H](C)CC)C(C)C)C(C)C) [peptide of SEQ ID NO: 199] |

The next lines start with the binder.

| Binder | EC50 [nM] 0% HSA (cAMP, HTRF) [1] [nM] | Emax (%) (100% = Sauvagine at 100 nM) [1] | EC50 [nM], 0% HSA (cAMP, HTRF) [2] [nM] |
| --- | --- | --- | --- |
| IVLSLD[dV]PIKLK([AEEA-AEEA-γGlu-C16 diacid])QILLKQERQKK[Aib]RQKAEKNKQILAQV-NH2 (N-terminus assumed; SMILES CC[C@H](C)[C@H](N)C(=O)N[C@H](C(=O)N[C@@H](CC(C)C)C(=O)N[C@@H](CO)C(=O)N[C@@H](CC(C)C)C(=O)N[C@@H](CC(=O)O)C(=O)N[C@@H](C(=O)N1CCC[C@H]1C(=O)N[C@H](C(=O)N[C@@H](CCCCN)C(=O)N[C@@H](CC(C)C)C(=O)N[C@@H](CCCCNC(=O)COCCOCCNC(=O)COCCOCCNC(=O)CC[C@H](NC(=O)CCCCCCCCCCCCCCC(=O)O)C(=O)O)C(=O)N[C@@H](CCC(N)=O)C(=O)N[C@H](C(=O)N[C@@H](CC(C)C)C(=O)N[C@@H](CC(C)C)C(=O)N[C@@H](CCCCN)C(=O)N[C@@H](CCC(N)=O)C(=O)N[C@@H](CCC(=O)O)C(=O)N[C@@H](CCCNC(=N)N)C(=O)N[C@@H](CCC(N)=O)C(=O)N[C@@H](CCCCN)C(=O)N[C@@H](CCCCN)C(=O)NC(C)(C)C(=O)N[C@@H](CCCNC(=N)N)C(=O)N[C@@H](CCC(N)=O)C(=O)N[C@@H](CCCCN)C(=O)N[C@@H](C)C(=O)N[C@@H](CCC(=O)O)C(=O)N[C@@H](CCCCN)C(=O)N[C@@H](CC(N)=O)C(=O)N[C@@H](CCCCN)C(=O)N[C@@H](CCC(N)=O)C(=O)N[C@H](C(=O)N[C@@H](CC(C)C)C(=O)N[C@@H](C)C(=O)N[C@@H](CCC(N)=O)C(=O)N[C@H](C(N)=O)C(C)C)[C@@H](C)CC)[C@@H](C)CC)[C@@H](C)CC)C(C)C)C(C)C) [peptide of SEQ ID NO: 200] | > 100 | 1.9 | 8.7 |
| IVLSLD[dV]PIKLK([AEEA-AEEA-γGlu-C16 diacid])QILLKQERQK[Aib]QREQAEKNKQILAQV-NH2 (N-terminus assumed; SMILES CC[C@H](C)[C@H](N)C(=O)N[C@H](C(=O)N[C@@H](CC(C)C)C(=O)N[C@@H](CO)C(=O)N[C@@H](CC(C)C)C(=O)N[C@@H](CC(=O)O)C(=O)N[C@@H](C(=O)N1CCC[C@H]1C(=O)N[C@H](C(=O)N[C@@H](CCCCN)C(=O)N[C@@H](CC(C)C)C(=O)N[C@@H](CCCCNC(=O)COCCOCCNC(=O)COCCOCCNC(=O)CC[C@H](NC(=O)CCCCCCCCCCCCCCC(=O)O)C(=O)O)C(=O)N[C@@H](CCC(N)=O)C(=O)N[C@H](C(=O)N[C@@H](CC(C)C)C(=O)N[C@@H](CC(C)C)C(=O)N[C@@H](CCCCN)C(=O)N[C@@H](CCC(N)=O)C(=O)N[C@@H](CCC(=O)O)C(=O)N[C@@H](CCCNC(=N)N)C(=O)N[C@@H](CCC(N)=O)C(=O)N[C@@H](CCCCN)C(=O)NC(C)(C)C(=O)N[C@@H](CCC(N)=O)C(=O)N[C@@H](CCCNC(=N)N)C(=O)N[C@@H](CCC(=O)O)C(=O)N[C@@H](CCC(N)=O)C(=O)N[C@@H](C)C(=O)N[C@@H](CCC(=O)O)C(=O)N[C@@H](CCCCN)C(=O)N[C@@H](CC(N)=O)C(=O)N[C@@H](CCCCN)C(=O)N[C@@H](CCC(N)=O)C(=O)N[C@H](C(=O)N[C@@H](CC(C)C)C(=O)N[C@@H](C)C(=O)N[C@@H](CCC(N)=O)C(=O)N[C@H](C(N)=O)C(C)C)[C@@H](C)CC)[C@@H](C)CC)[C@@H](C)CC)C(C)C)C(C)C) [peptide of SEQ ID NO: 198] | > 100 | 1.4 | 0.49 |
| IVLSLD[dV]PIGLK([γGlu-C16 diacid])QILLKQERQKK[Aib]REQAETNKQILAQV-NH2 (N-terminus assumed; SMILES CC[C@H](C)[C@H](N)C(=O)N[C@H](C(=O)N[C@@H](CC(C)C)C(=O)N[C@@H](CO)C(=O)N[C@@H](CC(C)C)C(=O)N[C@@H](CC(=O)O)C(=O)N[C@@H](C(=O)N1CCC[C@H]1C(=O)N[C@H](C(=O)NCC(=O)N[C@@H](CC(C)C)C(=O)N[C@@H](CCCCNC(=O)CC[C@H](NC(=O)CCCCCCCCCCCCCCC(=O)O)C(=O)O)C(=O)N[C@@H](CCC(N)=O)C(=O)N[C@H](C(=O)N[C@@H](CC(C)C)C(=O)N[C@@H](CC(C)C)C(=O)N[C@@H](CCCCN)C(=O)N[C@@H](CCC(N)=O)C(=O)N[C@@H](CCC(=O)O)C(=O)N[C@@H](CCCNC(=N)N)C(=O)N[C@@H](CCC(N)=O)C(=O)N[C@@H](CCCCN)C(=O)N[C@@H](CCCCN)C(=O)NC(C)(C)C(=O)N[C@@H](CCCNC(=N)N)C(=O)N[C@@H](CCC(=O)O)C(=O)N[C@@H](CCC(N)=O)C(=O)N[C@@H](C)C(=O)N[C@@H](CCC(=O)O)C(=O)N[C@H](C(=O)N[C@@H](CC(N)=O)C(=O)N[C@@H](CCCCN)C(=O)N[C@@H](CCC(N)=O)C(=O)N[C@H](C(=O)N[C@@H](CC(C)C)C(=O)N[C@@H](C)C(=O)N[C@@H](CCC(N)=O)C(=O)N[C@H](C(N)=O)C(C)C)[C@@H](C)CC)[C@@H](C)O)[C@@H](C)CC)[C@@H](C)CC)C(C)C)C(C)C) [peptide of SEQ ID NO: 194] | > 100 | 21.6 | 0.11 |
